Results taken from patent publication US20260209316A1.
Where two headings read alike, the source gives them in different places.

Key:
[1] = molecular target: thermolysin-cleaved SUDV GP (GP(S)THL) (Sudan virus (SUDV)) (UniProt Q7T9D9); test: BLI; Sudan GPTHL on sensor, NPC1-dC, then NPC1-dC (self-competition)
[2] = molecular target: thermolysin-cleaved SUDV GP (GP(S)THL) (Sudan virus (SUDV)) (UniProt Q7T9D9); test: as above; remark: listed apart in the source

Chain of Niemann-Pick disease, type C1-domain C (NPC1-dC) (O15118 373-620 limits assumed): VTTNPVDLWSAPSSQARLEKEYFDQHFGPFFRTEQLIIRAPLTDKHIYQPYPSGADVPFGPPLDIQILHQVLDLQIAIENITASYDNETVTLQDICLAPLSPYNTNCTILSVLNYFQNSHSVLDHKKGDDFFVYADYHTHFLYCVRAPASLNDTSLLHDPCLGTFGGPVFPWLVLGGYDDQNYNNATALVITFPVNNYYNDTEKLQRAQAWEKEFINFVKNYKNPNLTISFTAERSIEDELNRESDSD

“Niemann-Pick disease, type C1-domain C (NPC1-dC) (from UniProt O15118 373-620) (receptor)” gave a percent blocking of NPC1-dC binding [1] of 79% and a percent blocking of NPC1-dC binding [2] of 72%.
